Results taken from US20230416396A1 (Regeneron, published 2023).
Like-named read-outs stand apart in the source and are kept apart here.

Legend:
[1] = biological target: T1, human 4-1BB on cells (human, UniProt Q07011 24-255); experiment: flow cytometry on HEK293/h4-1BB cells, APC anti-human secondary
T1 construct: The engineered lines were transduced with NM_001561, amino acids M1 to L255; Residues 1-23 are stated to be the signal peptide; The UniProt number is printed as 007011; This entry also stands for 4-1BB on the Jurkat reporter cells and on primary T cells in the functional assays; also called h4-1BB; TNFRSF9
T1 sequence (Q07011 24-255): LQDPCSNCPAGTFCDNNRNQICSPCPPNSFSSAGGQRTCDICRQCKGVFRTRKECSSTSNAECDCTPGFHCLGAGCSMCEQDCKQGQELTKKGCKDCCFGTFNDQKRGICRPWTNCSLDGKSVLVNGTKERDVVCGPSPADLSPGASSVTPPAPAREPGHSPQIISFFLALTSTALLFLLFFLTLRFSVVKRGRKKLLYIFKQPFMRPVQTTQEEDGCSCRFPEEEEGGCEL
Description: (§1) The ability of the multispecific antigen binding molecules to bind cells was assessed using flow cytometry. Cell lines were chosen to determine the ability of both the anti-CD38 and anti-4-1BB arms to bind their targets. […] Binding was detected by using a labeled secondary antibody and measuring fluorescence on a flow cytometer.
HEK293 and HEK293/4-1BB cells were lifted with trypsin, washed and resuspended in stain buffer (2% FBS in PBS) and added to wells of a 96 well V-bottom plate (3×10⁵ cells/well). A 1:5, 9-point, dose titration of test antibodies was diluted in stain buffer and added to cells to a final concentration ranging from 1.3 pM to 100 nM (a “no antibody” control was included as the ninth point ([…]) labeled as “secondary only”). Cells and antibodies were incubated for 30 min on ice and then washed in stain buffer. Cells were resuspended in 2 ug/ml allophycocyanin (APC) conjugated goat-anti human secondary antibody and incubated for 30 min on ice. Cells were then washed and resuspended in viability dye (according to the manufacturer's protocol) and incubated for 30 min on ice. Cells were then washed with stain buffer and resuspended in 2% PFA for 30 min on ice. After washing, cells were filtered and analyzed by flow cytometry to determine the geometric mean fluorescence intensity (gMFI), which was subsequently plotted using GraphPad Prism software. EC₅₀ values of the antibodies were determined from a 4-parameter logistic equation over a 9-point dose response curve (including secondary only control).

[2] = biological target: T1, human 4-1BB on cells; experiment: cell-based or functional assay
[3] = biological target: T1, human 4-1BB on cells; experiment: cell-based or functional assay; remark: listed apart in the source
[4] = biological target: T2, human CD38 endogenously expressed on MOLP8 cells (human, UniProt P28907 1-300); experiment: flow cytometry on MOLP8 cells (endogenous hCD38), APC anti-human secondary
T2 construct: whole, on cells; also called hCD38
Description: as §1
HEK293 cells were lifted with trypsin, washed and resuspend in stain buffer (2% FBS in PBS). MOLP8 cells were washed and resuspended in stain buffer. Cells were added to wells of a 96 well V-bottom plate (3×10⁵ cells/well). A 1:4, 9-point, dose titration of test antibodies was diluted in stain buffer and added to cells to a final concentration ranging from 610 fM to 10 nM (a “no antibody” control was included as the ninth point (153fM), labeled as “secondary only”). Cells and antibodies were incubated for 30 min on ice and then washed in stain buffer. Cells were resuspended in 2 ug/ml allophycocyanin (APC) conjugated goat-anti human secondary antibody and incubated for 30 min on ice. Cells were then washed and resuspended in viability dye (according to the manufacturer's protocol) and incubated for 30 min on ice. Cells were then washed with stain buffer and resuspended in 2% PFA for 30 min on ice. After washing, cells were filtered and analyzed by flow cytometry to determine the geometric mean fluorescence intensity (gMFI), which was subsequently plotted using GraphPad Prism software. EC₅₀ values of the antibodies were determined from a 4-parameter logistic equation over a 9-point dose response curve (including secondary only control, representing the ninth point).

[5] = biological target: T1, human 4-1BB on cells; experiment: cell-based or functional assay; remark: listed apart in the source
[6] = biological target: T3, human 4-1BB expressed with a C-terminal murine Fc tag (human, UniProt Q07011 24-186); experiment: SPR Biacore 8k, antibody captured by anti-human Fc, h4-1BB.mFc as analyte, 25 C
T3 construct: also called h4-1BB.mFc; REGN3585; not shown: C-terminal murine Fc tag
T3 sequence (Q07011 24-186 limits assumed): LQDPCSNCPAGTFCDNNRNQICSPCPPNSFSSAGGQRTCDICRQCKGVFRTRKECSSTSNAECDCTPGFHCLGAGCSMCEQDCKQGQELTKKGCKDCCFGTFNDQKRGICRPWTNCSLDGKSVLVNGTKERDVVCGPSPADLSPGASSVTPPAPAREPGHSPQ
Description: Equilibrium dissociation constants (KD values) for human 4-1BB expressed with a C-terminal myc-myc-hexahistidine tag (h4-1BB.mmH, REGN3584) or human 4-1BB expressed with a C-terminal murine Fc tag (h4-1BB.mFc, REGN3585) binding to purified anti-CD38×4-1BB 1+2 antibodies were determined using a real-time surface plasmon resonance biosensor using a Biacore 8k instrument. The CM5 Biacore sensor surface was derivatized by amine coupling with a monoclonal mouse anti-human Fc antibody (REGN2567). All Biacore binding studies were performed in a buffer composed of 0.01M HEPES pH 7.4, 0.15M NaCl, 3 mM EDTA, 0.05% v/v Surfactant P20 (HBS-EP running buffer). […] Antibody-reagent association was monitored for 5 minutes while dissociation in HBS-EP running buffer was monitored for 10 minutes. At the end of each cycle, the anti-CD38×4-1BB 1+2 antibody capture surface was regenerated using a 10 second injection of 20 mM phosphoric acid. All binding kinetics experiments were performed at 25° C.
Kinetic association (kₐ) and dissociation (kd) rate constants were determined by fitting the real-time sensorgrams to a 1:1 binding model using Cytiva Insight curve fitting software. Binding dissociation equilibrium constants (KD) and dissociative half-lives (t/2) were calculated from the kinetic rate constants as: […]

[7] = biological target: T1, human 4-1BB on cells; experiment: cell-based or functional assay; remark: listed apart in the source
[8] = biological target: T1, human 4-1BB on cells; experiment: cell-based or functional assay; remark: listed apart in the source

EC50 [1]: 0.608 nM
MAX gMFI [1]: 1.4e+06 gMFI
EC50 of IL-2 release, T cells + NALM6 + Cemiplimab [2]: 0.0477 nM
EC50 of IL-2 release, T cells + NALM6 + IgG4P [2]: 0.0579 nM
EC50 of IL-2 release, T cells + NALM6/PD-L1 + Cemiplimab [2]: 0.0911 nM
EC50 of IL-2 release, T cells + NALM6/PD-L1 + IgG4P [2]: 0.117 nM
EC50 of IFNγ release, T cells + HEK293/CD20/CD38 + REGN2281 [3]: 0.0617 nM
EC50 of IFNγ release, T cells + MOLP-8 + REGN5458 [3]: 0.0707 nM
EC50 of IFNγ release, T cells + NALM-6 [3]: 0.0703 nM
MAX IFNγ release, T cells + HEK293/CD20 + REGN2281 [3]: 1910 pg/mL
MAX IFNγ release, T cells + HEK293/CD20/CD38 + REGN2281 [3]: 6050 pg/mL
MAX IFNγ release, T cells + MOLP-8 + IsoC [3]: 103 pg/mL
MAX IFNγ release, T cells + MOLP-8 + REGN5458 [3]: 3280 pg/mL
MAX IFNγ release, T cells + NALM-6 [3]: 655 pg/mL
MAX gMFI [4]: 120000 gMFI
EC50 of IL-2 release, T cells + HEK293/CD20/CD38 + REGN2281 [5]: 0.0535 nM
EC50 of IL-2 release, T cells + MOLP-8 + REGN5458 [5]: 0.216 nM
EC50 of IL-2 release, T cells + NALM-6 [5]: 0.0485 nM
MAX IL-2 release, T cells + HEK293/CD20 + REGN2281 [5]: 61 pg/mL
MAX IL-2 release, T cells + HEK293/CD20/CD38 + REGN2281 [5]: 781 pg/mL
MAX IL-2 release, T cells + MOLP-8 + IsoC [5]: 73 pg/mL
MAX IL-2 release, T cells + MOLP-8 + REGN5458 [5]: 66 pg/mL
MAX IL-2 release, T cells + NALM-6 [5]: 192 pg/mL
100 nM h4-1BB.mFc Bind (RU) [6]: 224 RU
Kd [6]: 1.18 nM
koff [6]: 0.000231 s⁻¹
kon [6]: 195000 M⁻¹ s⁻¹
t½ [6]: 50 min
EC50 of IL-2 release, T cells + HEK293/CD20/CD38 + REGN1979 [7]: 0.0058 nM
EC50 of IL-2 release, T cells + MOLP-8 + IsoC [7]: 0.00221 nM
EC50 of IL-2 release, T cells + MOLP-8 + REGN5458 [7]: 0.0231 nM
MAX IL-2 release, T cells + HEK293/CD20 + REGN1979 [7]: 199 pg/mL
MAX IL-2 release, T cells + HEK293/CD20/CD38 + IsoC [7]: 18 pg/mL
MAX IL-2 release, T cells + HEK293/CD20/CD38 + REGN1979 [7]: 2850 pg/mL
MAX IL-2 release, T cells + MOLP-8 + IsoC [7]: 331 pg/mL
MAX IL-2 release, T cells + MOLP-8 + REGN5458 [7]: 692 pg/mL
EC50 of luciferase activity, HEK293/NFkB-Luc/h4-1BB reporter + OPM2 [8]: 0.00735 nM
MAX luciferase activity, HEK293/NFkB-Luc/h4-1BB reporter + HEK293/CD20 [8]: 1.2e+06 RLU
MAX luciferase activity, HEK293/NFkB-Luc/h4-1BB reporter + HEK293/CD20/CD38 [8]: 2.4e+06 RLU
MAX luciferase activity, HEK293/NFkB-Luc/h4-1BB reporter + MOLP-8 [8]: 2.3e+06 RLU
MAX luciferase activity, HEK293/NFkB-Luc/h4-1BB reporter + OPM2 [8]: 1.9e+06 RLU
B1: REGN7647 (bispecific antibody, human IgG4 S228P, kappa)
heavy 1: EVQLVESGGGLVQPGRSLRLSCGASGFTFDDYVMHWVRQIPGKGLEWVAGISWNSGSIGYADSVKGRFTISRDNAKNSLYLQMNSLRAEDTALYFCAKDHIDPYSSSLYYYYGMDVWGQGTTVTVSSASTKGPSVFPLAPCSRSTSESTAALGCLVKDYFPEPVTVSWNSGALTSGVHTFPAVLQSSGLYSLSSVVTVPSSSLGTKTYTCNVDHKPSNTKVDKRVESKYGPPGGGGSGGGGSGGGGSEVQLVESGGGLVQPGRSLRLSCGASGFTFDDYVMHWVRQIPGKGLEWVAGISWNSGSIGYADSVKGRFTISRDNAKNSLYLQMNSLRAEDTALYFCAKDHIDPYSSSLYYYYGMDVWGQGTTVTVSSASTKGPSVFPLAPCSRSTSESTAALGCLVKDYFPEPVTVSWNSGALTSGVHTFPAVLQSSGLYSLSSVVTVPSSSLGTKTYTCNVDHKPSNTKVDKRVESKYGPPCPPCPAPPVAGPSVFLFPPKPKDTLMISRTPEVTCVVVDVSQEDPEVQFNWYVDGVEVHNAKTKPREEQFNSTYRVVSVLTVLHQDWLNGKEYKCKVSNKGLPSSIEKTISKAKGQPREPQVYTLPPSQEEMTKNQVSLTCLVKGFYPSDIAVEWESNGQPENNYKTTPPVLDSDGSFFLYSRLTVDKSRWQEGNVFSCSVMHEALHNRFTQKSLSLSPGK
heavy 2: EVQLVESGGGLVQPGRSLRLSCAASGFTFDDYAMHWVRQAPGKGLEWVSGISWKSDNIGYADSVKGRFTISRDNAKNSLYLQMNSLRAEDTALYYCAKALGGWKFDYYYGMDVWGQGTTVTVSSASTKGPSVFPLAPCSRSTSESTAALGCLVKDYFPEPVTVSWNSGALTSGVHTFPAVLQSSGLYSLSSVVTVPSSSLGTKTYTCNVDHKPSNTKVDKRVESKYGPPCPPCPAPPVAGPSVFLFPPKPKDTLMISRTPEVTCVVVDVSQEDPEVQFNWYVDGVEVHNAKTKPREEQFNSTYRVVSVLTVLHQDWLNGKEYKCKVSNKGLPSSIEKTISKAKGQPREPQVYTLPPSQEEMTKNQVSLTCLVKGFYPSDIAVEWESNGQPENNYKTTPPVLDSDGSFFLYSRLTVDKSRWQEGNVFSCSVMHEALHNHYTQKSLSLSLGK
light: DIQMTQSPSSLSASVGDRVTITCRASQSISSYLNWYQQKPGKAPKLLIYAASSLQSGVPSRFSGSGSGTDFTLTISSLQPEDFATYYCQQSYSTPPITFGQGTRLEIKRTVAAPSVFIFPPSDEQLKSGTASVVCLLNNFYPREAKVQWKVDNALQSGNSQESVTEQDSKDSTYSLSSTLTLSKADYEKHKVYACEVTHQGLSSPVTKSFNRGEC
notes: 1+2 format, hIgG4P-PVA; The linker between the two 4-1BB Fabs is (G4S)3v15; also called CD38x4-1BB (1 + 2), (G4S)3v15; 26812P2 x 35333P2 (IN) + 35333P2 (OUT)
